In test [1] the target is T1, human OX40 on cells (CHO-K1/hu OX40) (human, UniProt P43489 29-277).
T1 sequence (looked up): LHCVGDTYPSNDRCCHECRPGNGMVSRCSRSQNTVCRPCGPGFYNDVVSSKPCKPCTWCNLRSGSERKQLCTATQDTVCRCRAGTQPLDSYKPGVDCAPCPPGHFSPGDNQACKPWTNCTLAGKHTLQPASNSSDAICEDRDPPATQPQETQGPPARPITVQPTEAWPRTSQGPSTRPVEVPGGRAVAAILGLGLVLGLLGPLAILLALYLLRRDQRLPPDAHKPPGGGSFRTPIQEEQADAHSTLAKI
Description: cell-based or functional assay.

Test [2] has as its target T1, human OX40 on cells (CHO-K1/hu OX40). Description: FACS, CHO-K1/hu OX40 cells. In outline:
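Binding of anti-human OX40 HCAb antibodies measured by flow cytometry on CHO-K1 cells stably overexpressing human OX40. Cells incubated with 3-fold serially diluted antibodies 1 h at 4 °C in the dark, washed, then secondary staining 30 min at 4 °C; fluorescence read by FACS.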

Test [3] deals with T2, cynomolgus monkey OX40 protein (Novoprotein, #CB17) (cynomolgus monkey).
T2 construct: Bought recombinant protein; also called cyno OX40
Description: ELISA, coated cyno OX40 protein.

In test [4] the target is T3, human OX40 protein (Acro biosystem, #OX0-H5224) (human, UniProt P43489 29-216).
T3 construct: Bought recombinant protein
T3 sequence (looked up): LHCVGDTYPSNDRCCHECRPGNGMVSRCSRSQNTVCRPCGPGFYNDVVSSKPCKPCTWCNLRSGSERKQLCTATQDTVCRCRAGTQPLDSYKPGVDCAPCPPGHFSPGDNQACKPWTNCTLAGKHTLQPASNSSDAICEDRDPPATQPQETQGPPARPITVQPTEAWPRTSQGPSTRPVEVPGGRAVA
Description: ELISA, coated human OX40 protein.

Test [5] deals with T3, human OX40 protein (Acro biosystem, …). Description: BLI, antibody on ProA sensor, 1:1 global fit. How it is done:
(§1) The binding kinetics between the antigen and the antibody was analyzed by the Biolayer Interferometry (BLI) technique using an Octet Red 96e molecular interaction analyzer (Fortebio).
(§2) The association and dissociation signals between the OX40 antibodies and OX40 proteins were recorded by Octet Red 96 in real time. When data analysis was performed using Octet Data Analysis software (Fortebio, version 11.0), 0 nM was used as a reference hole, and reference subtraction was performed; the “1:1 Global fitting” method was selected to fit the data, and the kinetics parameters of the binding of antigens to antigen-binding proteins were calculated, with kon(1/Ms) values, kdis(1/s) values and KD(M) values obtained.

Test [6] concerns the target T2, cynomolgus monkey OX40 protein …. In words: BLI, antibody on ProA sensor, 1:1 global fit. How it is done:
as §1, §2

The results in this text go back to patent US20230295324A1 (published 2023).

B1: PR002067 (antibody, human IgG1, V domains shown)
VH: EVQLLESGGGLVQPGGSLRLSCAASGFTFSSYAMSWVRQAPGKGLEWVSAISGRGGSTFYADSVRGRFTISRDNSKNTLYLQMNSLRAEDTAMYYCVDGTTGTTDVDYWGQGTLVTVSS
notes: no light chain; also called anti-OX40 HCAb antibody
On to B1, for which, in test [1], the “EC50, IFN-γ release by human T cells with OKT3 and CHO-K1-CD32b cells” value is 0.0863 nM; the “Maximum IFN-γ release value” worked out at 2000. For the same molecule, in test [2], a half-maximal effect (EC50) was put at 5.25 nM and the “Maximum MFI” value turned out to be 3010 MFI. Moreover, in test [3], a half-maximal response (EC50) required 0.232 nM and the “Maximum OD” value turned out to be 2.16 OD. Besides, in test [4], a half-maximal response (EC50) required 0.0806 nM and the “Maximum OD” value amounted to 2.38 OD. In test [5], binding was characterised by a dissociation constant (Kd) of 4.16 nM, the koff turned out to be 0.000156 s⁻¹ and the kon amounted to 37400 M⁻¹ s⁻¹. Further, in test [6], the Kd stood at 19.2 nM, the koff stood at 0.000475 s⁻¹ and the kon was 24800 M⁻¹ s⁻¹.
